The values below come from the DeepSol protein solubility set.

The data set in a line: soluble on expression in E. coli; label from the status in PepcDB or PDB records.
Take “MKAYAKKRISYMPSSPSQNVINFEEIETQKENILPLKEGRSAAALSKAIHQPLVEINQVKSSFEQRLIDELPALSDPITLYLEYIKWLNNAYPQGGNSKQSGMLTLLERCLSHLKDLERYRNDVRFLKIWFWYIELFTRNSFMESRDIFMYMLRNGIGSELASFYEEFTNLLIQKEKFQYAVKILQLGIKNKARPNKVLEDRLNHLLRELGENNIQLGNEISMDSLESTVLGKTRSEFVNRLELANQNGTSSDVNLTKNNVFVDGEESDVELFETPNRGVYRDGWENFDLKAERNKENNLRISLLEANTNLGELKQHEMLSQKKRPYDEKLPIFRDSIGRSDPVYQMINTKDQKPEKIDCNFKLIYCEDEESKGGRLEFSLEEVLAISRNVYKRVRTNRKHPREANLGQEESANQKEAEAQSKRPKISRKALVSKSLTPSNQGRMFSGEEYINCPMTPKGRSTETSDIISAVKPRQLTPILEMRESNSFSQSKNSEIISDDDKSSSSFISYPPQR”: the “soluble on expression in E. coli” value was “soluble”.

“MKAYVALLHSIVLGDGRRVVMADLKAMAEALGCRAPRTLVATGNLLFEAPEKPLAELEAELEKAFEKTFGRHVDIIVRSAEDWSRLAAGNPFLAESERDPASVHVRVMRLPLEVDMREKLLGYCSRGERVAIVDGDLWVDFAGKASESKLLGALTTKRLGIGTVRNWNTVKGLRGMVAG”: the “soluble on expression in E. coli” value was “not soluble”. On to “MKCNMCPRACNVDRNVNTGFCGMTNDIYAARAALHMWEEPCISGEHGSGAVFFSGCTLRCIFCQNSEIAAAQVGKKITVERLSDIFLELQDKCANNINLVTATHFVPQVAEALVKAKNKGLVIPVVYNSSAYENVSTLNMLDGLVDVYLPDMKYIDSRLSAEYSKAPDYADVAKAAIHEMVRQTGKLEFFIEDDELVKSGRVEAGIMKKGVIVRHLVLPGTTKDSKAVIKYLIDTYGDDIYISIMSQYTPFDRLKKHPLLSRKVTRKEYNSVVDYAIDCGINNGFIQEGDVAEESFIPEFDYEGI”, for which the “soluble on expression in E. coli” value is “not soluble”. As to “MKCPFCNPIKENILYEDDTIRILLDNYPANPGHLLIVPRRHVTKLEELSEGEKASLLRGIEIAIEALKKTLNPDGFNVGINIGKAAGQTVEHLHIHVIPRFNNDCKYPKGGIRKAVLDVKDENLEDEERWTKNRLPREKVEELRRALHGG”, the “soluble on expression in E. coli” value is on record as “soluble”. As for “MKDDRYPSEWAQLALQKKQSVNWACERCGVQCLKPGEGKGLSTGDRYRLRMAVHHCDYDPGNNSPSNLKALCSPCHLYFHRRQRGNVIPGQLRLKFSFLILEHHHHHH”, the entry is “soluble”; as for “MKDFKLAKSKSHAIEETKPFSILLMGVDTGSEHRKSKWSGNSDSMILVTINPKTNKTTMTSLERDVLIKLSGPKNNGQTGVEAKLNAAYASGGAEMALMTVQDLLDINVDYFMQINMQGLVDLVNAVGGITVTNKFDFPISIAANEPEYKAVVEPGTHKINGEQALVYSRMRYDDPEGDYGRQKRQREVIQKVLKKILALNSISSYKKILSAVSNNMQTNIEISSKTIPNLLAYKDSLEHIKSYQLKGEDATLSDGGSYQILTKKHLLAVQNRIKKELDKKRSKTLKTSAILYEDYYGLEHHHHHH”, “soluble”; as for “MKDKKTISILGCGWLGLPLAEAFIQSGFRVKGSTTREERLSVIEAAGAEGYVLKADGGAWTGERLNDFLRCDILLIAIPPGTKRNANSTHAVEIGQLMDHIKKYSIAIKQLIYISSTSVYKNINSVVIESDTAIPSNIGNQILFQAEKHVHESVIERKLILRLGGLTGYDRMLGRFFAGKQELAGGNEPVNLVHRDDVVACILFLLKNGIGEQVFNICSPQHPSRKEFYTRLCDRFNLPEPH”, “not soluble”.

For the sequence “MKDKYLIIDGYNMIGQSPELGKIAKDNLQEAREQLLDAIANYNAVVADEIVCVFDAYEQSGIEREYIYHGVKTVFTKEKETADSYIERYVYNLYNKHTTHITVVTSDMSEQHAIFGAGAYRVSSREMWRDLRENEITVSKSLDDFTESKPRTRISLSNDVLAEFEKIRRGNHNKDLEHHHHHH”, the “soluble on expression in E. coli” value is recorded as “not soluble”. As for “MKDLKKIESYLDKLRIKEKDGEERKIYAEVLDGRTLKTLYKLSAKGYITAMGGVISTGKEANVFYADGVFDGKPVAMAVKIYRIETSEFDKMDEYLYGDERFDMRRISPKEKVFIWTEKEFRNLERAKEAGVSVPQPYTYMKNVLLMEFIGEDELPAPTLVELGRELKELDVEGIFNDVVENVKRLYQEAELVHADLSEYNIMYIDKVYFIDMGQAVTLRHPMAESYLERDVRNIIRFFSKYGVKADFEEMLKEVKGE”, the “soluble on expression in E. coli” value is reported as “soluble”. Take “MKDPDRWMDVKEFLPLLAQKEWYTKTRFGYARGHEPVVYVQNIRRYYDVLVRITEPDAPSASGLEDQLAWLEHHHHHH”: the “soluble on expression in E. coli” value is on record as “not soluble”. “MKEDPRIIKTLSKLQKAFVMLLKTYDAGDINVRQISDEAGVTRGAFYSHFSDKKEFVNFTINELVGSLFNSSLKDSVGFVDEVNHKNAHGTNVLSVSNFFDKVAADYQTYTIVLDTEKLPQFTEVLKERLNSEIKTFAEYYGKKVKHDGFPIEVLSSYYVNGLIGMIRMWLDEGMVYTSHYMANAAKKILGTKIQIDSQNIDLSDFFVDLEHHHHHH”: the “soluble on expression in E. coli” value is given as “soluble”. For the sequence “MKEELIERFTRYVKIDTQSNEDSHTVPTTPGQIEFGKLLVEELKEVGLTEVTMDDNGYVMATLPANTDKDVPVIGFLAHLDTATDFTGKNVKPQIHENFDGNAITLNEELNIVLTPEQFPELPSYKGHTIITTDGTTLLGADDKAGLTEIMVAMNYLIHNPQIKHGKIRVAFTPDEEIGRGPAHFDVEAFGASFAYMMDGGPLGGLEYESFNAAGAKLTFNGTNTHPGTAKNKMRNATKLAMEFNGHLPVEEAPEYTEGYEGFYHLLSLNGDVEQSKAYYIIRDFDRKNFEARKNTIENIVKQMQEKYGQDAVVLEMNDQYYNMLEKIEPVREIVDIAYEAMKSLNIEPNIHPIRGGTDGSQLSYMGLPTPNIFTGGENYHGKFEYVSVDVMEKAVQVIIEIARRFEEQA”, the “soluble on expression in E. coli” value is reported as “not soluble”. “MKEKTPFKNEKEFHDMVKKTKKGTFSGWYIVNPENNSVEFSGNFNRQFKLNKPVIPVNTEYVTRKEFNEYKDSNDQRLIKIETTLAAQGEQIRIQGEQIKELQIEQKAQSETLKLILQTLQKMSDRLDKMDVRLDKLESK”: the “soluble on expression in E. coli” value was “soluble”. Turning to “MKERMQKTSAQAHDFPQRARTESEWYEGVQTFMWMTEDNIVEVPFDKEHLLEIILSPSNLNKAYKAVVRNNGSGGIDKMSCEQLLSWLKANKDELIISLQSGTYRPNPVRRVEIPKDNGKKRLLGIPTVVDRLVQQAINQVLTLIYERQFSKTSYGFRPQRGCHDALRKAQKIVSEGYIYVVDLDLERFFDTVSHSKLIEILSRTIKDGRVISLIHKYLRSGVINRGMFEMSTEGTPQGGPLSPLLSNIMLNELDKELERRGHPFVRYADDAMIFCKSKRAAKRVRESITLFIEGKLFLKVNHEKTVVSYVKGVKFLGYSFYVKKGDCILLVHSKSKNKMKSKLKELTSRSNGWGYEKRKQKLKDYIRGWIAYFCLAQMKRLCIETDEWLRRRIRMCIWKSWKNAKTRVANLKKCGVSEWQAYQWGNTRLGYWRVSNSPIVTFVMSNDKLRKAGYMEFMDCYLKWCPK”, the “soluble on expression in E. coli” value is reported as “not soluble”. As for “MKERTIQPVNNGLNGNITIPGDKSISHRAVMFGAIAEGTTTIKGFLPGADCLSTISCFKEMGVDIVQNGDEVTVVGKGLEGLQEPKAVLDVGNSGTTIRLMSGILANTPFLSCVQGDTSIAKRPMKRVTNPLKQMGANIDGREEGTFTPLTIRGGDLKAIEYTSPVASAQVKSAILLAGLRAEGVTAVTEPHISRDHTERMLEAFGVKVTREGKTVKLAGGQKLTATDVQVPGDVSSAAFFLVAGAIIPNSKLVLENVGMNPTRTGIIDVLEKMGATFTVEPINEGASEPAANITIETSSLKGIEIGGDIIPRLIDEIPVIALAATQAEGITVIKDAHELKVKETNRIDTVVAELTKLGARIEATDDRMIIYGKSALKGNTVNSYGDHRIGMMLAIAGCIAEGKTIIEDAEAVGVSYPTFFEELQKLAK”, the “soluble on expression in E. coli” value is “not soluble”.

For “MKEVLFISEMERGRAEIESRVSNIKTTQDFGYREKIKEKKDASTAYAACISELLLEEKVKKIAVAYDFPIFYSNYLTEAGFTIVPVKSPFRKMRSVKGPEEIEAIKYAQMAGEKAMEAAITLIADAEEKDGVLYFEGQVLTGAKVNSVIDHTLLDFGCEAEETIVSCGEDTSNPHGTTEGPLRANAPIILDIFPRSKKKRYFADMTRTVLRGEASEKLKEMYETVLVAQQKALEMVKPGIHSSEIHRAVCDLFEARGYHTYRSGSKAGFTHSTGHGVGLDIHELPSVGESGVLLETGNVITIEPGLYYPGIGGIRLEDMVLVTKTGYENFTGLEKKFVLKSFYNLEHHHHHH”, the “soluble on expression in E. coli” value is recorded as “not soluble”.
